This is an account of results in PMC7820495.

The term Kd denotes the equilibrium constant for the complex coming apart.

For the experiment, the target named is T1, GST-SVIP (Drosophila SVIP, CG32039), Q8IQC6.
T1 chain: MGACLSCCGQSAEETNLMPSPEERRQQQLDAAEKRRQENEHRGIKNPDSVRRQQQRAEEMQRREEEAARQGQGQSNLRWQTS
The experiment is described as follows: in vitro binding titration assay. Conditions: chain shown with the change;; parent: 0.70 uM.

B1: MBP-VCP^N-D1 (Drosophila VCP, N-terminal and first D1 ATPase domain), Q7KN62 R152H (protein)
chain: MADSKGEDLATAILKRKDRPNRLIVEEAQNDDNSVVSLSQAKMDELQLFRGDTVILKGKRRKETVCIVLSDDTCPDEKIRMNRVVRNNLCVHLSDVVSVQSCPDVKYGKRVRILPIDESTEGVTGNLFEIYLKPYFLEAYRPIHMGDNFIVHAAMRPIEFKVVLTDPEPYCIVAPETVIFCDGDPIKREEEEESLNAVGYDDIGGCRKQLAQIKEMVELPLRHPSLFKAIGVKPPRGILMYGPPGTGKTLIARAVANETGAFFFLINGPEIMSKLAGESESNLRKAFEEAEKNSPAIIFIDEIDAIAPKRDKTHGEVERRIVSQLLTLMDGMKKSSHLIVMAATNRPNSIDPALRRFGRFDREIDIGIPDATGRLEVLRIHTKNMKLHDDVDLEQIAAESHGHVGADLASLCSEAALQQIREKMDLIDLEDDKIDAEVLASLAVTMENFRYAMTKSSPSALRETVVEVPNTTWTDIGGLESVKKELQELVQYPVEHPDKFLKFGMQPSRGVLFYGPPGCGKTLLAKAIANECQANFISVKGPELLTMWFGESEANVRDIFDKARSAAPCVLFFDELDSIAKARGGNVGDAGGAADRVINQILTEMDGMGAKKNVFIIGATNRPDIIDPAILRPGRLDQLIYIPLPDDKSREAILKANLRKSPLAKEVDLTYIAKVTQGFSGADLTEICQRACKLAIRQAIEAEIRREKERAENQNSAMDMDEDDPVPEITSAHFEEAMKFARRSVSDNDIRKYEMFAQTLQQSRGFGQNFRFPGQTGNTSGSGNNLPVNSPGDNGDDDLYS
Turning to B1, the Kd worked out at 640 nM.

B2: MBP-VCP^N-D1 (Drosophila VCP, N-terminal and first D1 ATPase domain), Q7KN62 A229E (protein)
chain: MADSKGEDLATAILKRKDRPNRLIVEEAQNDDNSVVSLSQAKMDELQLFRGDTVILKGKRRKETVCIVLSDDTCPDEKIRMNRVVRNNLCVHLSDVVSVQSCPDVKYGKRVRILPIDESTEGVTGNLFEIYLKPYFLEAYRPIHMGDNFIVRAAMRPIEFKVVLTDPEPYCIVAPETVIFCDGDPIKREEEEESLNAVGYDDIGGCRKQLAQIKEMVELPLRHPSLFKEIGVKPPRGILMYGPPGTGKTLIARAVANETGAFFFLINGPEIMSKLAGESESNLRKAFEEAEKNSPAIIFIDEIDAIAPKRDKTHGEVERRIVSQLLTLMDGMKKSSHLIVMAATNRPNSIDPALRRFGRFDREIDIGIPDATGRLEVLRIHTKNMKLHDDVDLEQIAAESHGHVGADLASLCSEAALQQIREKMDLIDLEDDKIDAEVLASLAVTMENFRYAMTKSSPSALRETVVEVPNTTWTDIGGLESVKKELQELVQYPVEHPDKFLKFGMQPSRGVLFYGPPGCGKTLLAKAIANECQANFISVKGPELLTMWFGESEANVRDIFDKARSAAPCVLFFDELDSIAKARGGNVGDAGGAADRVINQILTEMDGMGAKKNVFIIGATNRPDIIDPAILRPGRLDQLIYIPLPDDKSREAILKANLRKSPLAKEVDLTYIAKVTQGFSGADLTEICQRACKLAIRQAIEAEIRREKERAENQNSAMDMDEDDPVPEITSAHFEEAMKFARRSVSDNDIRKYEMFAQTLQQSRGFGQNFRFPGQTGNTSGSGNNLPVNSPGDNGDDDLYS
On to B2, for which the equilibrium dissociation constant (Kd) came to 580 nM.

B3: MBP-VCP^N-D1 (Drosophila VCP, N-terminal and first D1 ATPase domain), Q7KN62 T259A (protein)
chain: MADSKGEDLATAILKRKDRPNRLIVEEAQNDDNSVVSLSQAKMDELQLFRGDTVILKGKRRKETVCIVLSDDTCPDEKIRMNRVVRNNLCVHLSDVVSVQSCPDVKYGKRVRILPIDESTEGVTGNLFEIYLKPYFLEAYRPIHMGDNFIVRAAMRPIEFKVVLTDPEPYCIVAPETVIFCDGDPIKREEEEESLNAVGYDDIGGCRKQLAQIKEMVELPLRHPSLFKAIGVKPPRGILMYGPPGTGKTLIARAVANEAGAFFFLINGPEIMSKLAGESESNLRKAFEEAEKNSPAIIFIDEIDAIAPKRDKTHGEVERRIVSQLLTLMDGMKKSSHLIVMAATNRPNSIDPALRRFGRFDREIDIGIPDATGRLEVLRIHTKNMKLHDDVDLEQIAAESHGHVGADLASLCSEAALQQIREKMDLIDLEDDKIDAEVLASLAVTMENFRYAMTKSSPSALRETVVEVPNTTWTDIGGLESVKKELQELVQYPVEHPDKFLKFGMQPSRGVLFYGPPGCGKTLLAKAIANECQANFISVKGPELLTMWFGESEANVRDIFDKARSAAPCVLFFDELDSIAKARGGNVGDAGGAADRVINQILTEMDGMGAKKNVFIIGATNRPDIIDPAILRPGRLDQLIYIPLPDDKSREAILKANLRKSPLAKEVDLTYIAKVTQGFSGADLTEICQRACKLAIRQAIEAEIRREKERAENQNSAMDMDEDDPVPEITSAHFEEAMKFARRSVSDNDIRKYEMFAQTLQQSRGFGQNFRFPGQTGNTSGSGNNLPVNSPGDNGDDDLYS
Turning to B3, the equilibrium dissociation constant (Kd) amounted to 1230 nM.
